Assays:
[1] = substrate: CC(C)C[C@@H](N)C(=O)O; test: purified protein; settings: 1 mM PMS, 20 mM sodium pyrophosphate, pH 10.0, 25 °C
[2] = substrate: N=C(N)NCCC[C@@H](N)C(=O)O; test: purified protein; settings: 1 mM PMS, 20 mM sodium pyrophosphate, pH 10.0, 25 °C

B1: Pseudomonas aeruginosa D-arginine dehydrogenase (PaDADH) (Pseudomonas aeruginosa PAO1) (protein)
chain: MIEADYLVIGAGIAGASTGYWLSAHGRVVVLEREAQPGYHSTGRSAAHYTVAYGTPQVRALTAASRAFFDNPPAGFCEHPLLSPRPEMVVDFSDDPEELRRQYESGKALVPQMRLLDAEQACSIVPVLRRDKVFGATYDPTGADIDTDALHQGYLRGIRRNQGQVLCNHEALEIRRVDGAWEVRCDAGSYRAAVLVNAAGAWCDAIAGLAGVRPLGLQPKRRSAFIFAPPPGIDCHDWPMLVSLDESFYLKPDAGMLLGSPANADPVEAHDVQPEQLDIATGMYLIEEATTLTIRRPEHTWAGLRSFVADGDLVAGYAANAEGFFWVAAQGGYGIQTSAAMGEASAALIRHQPLPAHLREHGLDEAMLSPRRLSP
- Km [1]: 6.6 ± 0.5 mM
- kcat [1]: 73 ± 3 s⁻¹
- kcat/Km [1]: 11000 ± 880 M⁻¹ s⁻¹
- Km [2]: 0.033 ± 0.002 mM
